Laboratory results taken from the domain aggregation screens of Martell et al. (2025).

Assay: soluble fraction after stress (log2 fold change); higher = more stays soluble; pooled small domains, quantitative proteomics
Details: stress: 75 degC
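Also: 20 min heating vs room temperature control held 20 min.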

Row | Sequence | soluble fraction (log2)
1 | HMHRTMFYLDVDLAEGQSVKMAVHEDDDPGELAARFADEHQLKSRAMEKLRSVIEENVRLHRRNQ | -0.57
2 | HMHRTRNAERTRAAVLKAAAEVLAERGTGASLARIAEVAGVSKSGLLHHFANREQLIVALLED | -1.16
3 | HMHSIFPVIRSTSFPTKSNDGELFITSDHTAETRIYYALDLGNTYRLIDQKVMNEINLTESLVKETARF | -1.72
4 | HMHSILDDIEGIGPARRKALMRHYMNLDAIKSATVEELAAVPSMNEKSAKAVHNFFHQQKKD | 0.0285
5 | HMHSKQRDAIFENLRSRKDHPTAEEIYLSLKPAMPAISLATVYRNLAQLENEGLILRLGSGGSARYDGDT | -0.467
6 | HMHSLGDQVFETIKELIVNNTYQPGELLQIDKLAAEFGVSTTPVREALLRLEGLGLVDIERNKAAVVT | 0.447
7 | HMHSPLLDRYLAEVGWRLRHLSGAQREDILAGLREHIADLESAGVAPEEIVARLGSPESVADAAAGEF | -0.0802
8 | HMHSPTFYVHVVGQVKVPGVYELEVGSRLFDAVIAAGGFKDDADQASVNLARPLSDGEQIVVLKLGDQ | -0.777
9 | HMHTADDFKQLAKQTSNGQLRTRYLALYLFKNGETRTQIATYLGVARGSVNTWVSNYLAHGLEGLQSKP | -2.95
10 | HMHTSEDLEKLLTRYFQSHESINRQQFEQLSGFTRTTASRRLKALVEAGKLKNIGLHHFPVYKPTEGNF | -0.485
11 | HMHVGVWIMNEKGEILLEQRASNKKVDPNKWARIGGHVDAGEKPIQAIQREILEEIGVKIPLENFIVLET | -0.266
12 | HMHVLAVDEALHKLTELNELHAKIVEMRFFSGMTVQEVADELGVSKRKIESEWTMIKAWLRKELN | -0.199
13 | HMHVSLSGKIHSELRKLILNGELKAGERLPSEPDLAHELGVSRNSLREAIGLLQREGLLLKKHGIGTFVTD | -1.42
14 | HMHVYQSLVTDRVVPGGGYRTTEAILSTEAWRNTLLEQAKRELIGVRNKYASLTELAKVWTAIDTVT | -1.65
15 | HMHYALTVDFPAALEARIDPAHRAALRGVLAHDPRPSYQSDPERLYGVAFAGKNVKFTVEDGVLTVRKIEE | -0.151
16 | HMHYKLIIFENHTKSTSLDITPEQARQILGVTDYTPEQYEILAEITNRPASYFMDDLVDYYVD | -2.33
17 | HMHYNMNYLENLTKTELFDLAKNKFGLTYAEMERHLSIPEGGARYAIKAEHSKYGSDIKKYLVEFLLE | -1.06
18 | HMIADPAKPDWTTILAPVTTGTTVTHKTFGQGTVTKLDKTKKYLTVSFAAGQKNFVFPNAFIDGFLK | -0.159
19 | HMIADSSSIHQDAKQQLHSYLRTNIQPLMRAGKQLDLKDILHHVTIRKPKLVQQLGMKQVQHMVQVLLD | -1.04
20 | HMIAGHLQEKKGFFYIVLSYPDAAGKRKTKWFPTKLSVKGNKKKAEVMLMDARKTFVPPETPL | -0.497
21 | HMIAITVGSKVRVKAGATFSDGTKPFTEVYNTVYDVQLLSRNGKEARIGIGEQWTGWMYISDLYPADQ | -3.42
22 | HMIAPQISSGKVNTKELNVRSGPATTFGIVKKLPLNAMVGIFEEKNGWFRIATGQWVSKTYVDL | -2.33
23 | HMIAVLEEGSRFRAINDISGKPFGPEMIIKNGQVIAAGKKILTKPKKLIGKKEGTKFNISGKEYVIKDI | -0.747
24 | HMIAWNFDTMKESLSEMERVDYQEFIKAFLSLELSISDRTILNQVYQDYMDEDDLSLISDELRV | 0.0602
25 | HMIDDNTIIQIGDSYSKSIRLLGEPIELKNRSLNQKSYFMAVYDFKGRRYRLFFENDVLFDILRD | -2.66
26 | HMIDELLDPTHRIMVRHPRVDYVSPGFLIGPDKDVILWGFTGGIIARLFDFLGWTRPWDQSHVQDLPPYML | -0.245
27 | HMIDENILSEEIKHYIETNNYAKDDKLPSERSLASLFNVSRALVRKSLISLVDVNYLYVKDKSGYYING | -0.0579
28 | HMIDEPENLIQEDKMVNIIYDLALLEGVKTFNSSNFQSVKSNDFVYKKYKIDSLQFAKSTQFYASDINR | 0.0618
29 | HMIDFDEIEILSSSKIEKIENSEYLKSSIFEKDSNQYIYRLSFENRDQLKNFKKEIEDIDQIKKIDVTY | 0.0545
30 | HMIDHKVIRSFRQKRNMTLQELAQKANLSVSYLSEIELGKKQPSLETLDKLSKALNISLEGL | -0.535
